5 molecules from patent US20120121507A1 (NATIONAL RESEARCH COUNCIL OF CANADA, published 2012) can be followed below.

Experiment [1] concerns the target T1, recombinant human clusterin (human, UniProt P10909 23-449).
T1 construct: also called rhCLU; rh-clusterin
The experiment can be described thus: SPR, rhCLU 0 nM to 1.4 µM over immobilized P3376 (150 RU), response at equilibrium, one-to-one binding model. How it is done:
(§1) Protein-peptide interactions were followed using a BIAcore 3000 instrument (Biosensor AB, Uppsala, Sweden). All binding experiments were carried out at 25° C. under a continuous flow of the HBS-EP buffer (20 mM HEPES, 150 mM NaCl, 3.4 mM EDTA and 0.05% Tween-200) at pH 7.4 over the sensor surface at a flow rate of 20 μL/min. Different concentrations of rh-clusterin in the HBS-EP buffer were injected over the peptide-derivatized sensor chips. Dissociation was monitored for up to 300 s post-injection. The surfaces were fully regenerated by 15 s injection of an HBS-EP buffer solution containing 5 mM NaOH. […] Reference responses from control flow cells, containing unmodified dextran surfaces, were subtracted from peptide-containing flow cells, for each analyte injection using the BiaEvaluation software version 3.0 (Biacore AB, Uppsala, Sweden).
(§2) The resulting sensorgrams were used for kinetic rate determination through global fitting of the experimental data to a simple 1:1 Langmuir binding model. […] Affinity data (KD) from the binding studies were obtained by plotting the response in RU at the steady state, Req, versus the concentration of clusterin, C, and by fitting these curves to a one-site binding model, Req=C*xRmax/(C+KD) where Rmax is the value in RU at saturation and Req is the observed optical change in RU at each given C. […]
For orientation: Surface plasmon resonance follows binding to a sensor surface in real time, without labels.

The target in experiment [2] is T1, recombinant human clusterin. Briefly: SPR, rhCLU flowed over immobilized P3376, fit of the response against the clusterin concentration [inset]. How it is done: as §1, §2
For experiment [3] the target is unchanged. Briefly: SPR (BIAcore 3000), rhCLU over immobilized P3375 (1200 RU), kinetic global fit, 1:1 Langmuir. How it is done:
as §1, §2

Experiment [4] has the same target. The experiment can be described thus: SPR, rhCLU flowed over immobilized P3375, global fit. On the procedure: as §1, §2
Experiment [5] has the same target. Briefly: SPR (BIAcore 3000), rhCLU 2 nM-1.1 µM over immobilized P3375 (1200 RU), global fit, 1:1 Langmuir. How it is done: as §1, §2
Experiment [6] shares this target. Briefly: SPR, rh-clusterin 0-1.2 µM over immobilized P3378, no antibody; no antibody; rh-clusterin alone over immobilized P3378. On the procedure: as §1, with “All” for “Protein-peptide interactions were followed using a BIAcore 3000 instrument (Biosensor AB, Uppsala, Sweden). All”
(§3) The question of whether an EMT-blocking anti-clusterin monoclonal antibody (mAb) 16B5 and P3378 have overlapping or independent binding sites on clusterin was investigated using SPR biosensor analysis. Several mAbs that interact with clusterin have been isolated; five of these mAbs, including 16B5, interact with an epitope on clusterin that is important for the EMT-promoting action of clusterin. Accordingly, these anti-clusterin mAbs inhibit EMT in cell culture, and tumor metastasis in animal models (O'Connor-McCourt et al, WO 2007/030930). […]

The target is the same in experiment [7]. Briefly: SPR, rh-clusterin preincubated with mAb 16B5 (ratios of 1:1.7), flowed over immobilized P3378; rh-clusterin preincubated with mAb 16B5 (ratio 1:1.7). On the procedure:
Different concentrations of rh-clusterin in the HBS-EP buffer were injected over the peptide-derivatized sensor chips. Dissociation was monitored for up to 300 s post-injection. The surfaces were fully regenerated by 15 s injection of an HBS-EP buffer solution containing 5 mM NaOH. […] Reference responses from control flow cells, containing unmodified dextran surfaces, were subtracted from peptide-containing flow cells, for each analyte injection using the BiaEvaluation software version 3.0 (Biacore AB, Uppsala, Sweden).
as §3, with “2007/030930). Since clusterin-binding peptides can be used to non-invasively image clusterin-expressing tumors (primary tumors and metastases) in vivo, it is important to determine whether treatment with anti-clusterin mAbs may block peptide binding to the clusterin target and therefore compromise the ability of the peptides to image the tumor.” for “2007/030930).”

The target is the same in experiment [8]. Briefly: SPR (BIAcore 3000), rhCLU 5.5 nM-1.4 µM over immobilized P3378 (500 RU), global fit, 1:1 Langmuir. On the procedure:
as §1, §2

Experiment [9] shares this target. The experiment can be described thus: SPR, rh-clusterin alone flowed over immobilized P3378, fit of the response against the clusterin concentration [inset]. On the procedure:
as §1, with “All” for “Protein-peptide interactions were followed using a BIAcore 3000 instrument (Biosensor AB, Uppsala, Sweden). All”
as §3

For experiment [10] the target is unchanged. The experiment can be described thus: SPR (BIAcore 3000), rhCLU over immobilized P3378 (500 RU), kinetic global fit, 1:1 Langmuir. On the procedure: as §1, §2
Experiment [11] shares this target. Briefly: SPR, rhCLU flowed over immobilized P3378R. On the procedure:
as §1
This control peptide has the same amino acid content as P3378 but with a randomized sequence ([…]—SEQ ID NO:6). A lack of binding between rhCLU and this control peptide is evidenced by the linear nature of the Scatchard plot (inset; the response at equilibrium plotted against the concentration of rhCLU).

The target is the same in experiment [12]. Briefly: SPR, rh-clusterin flowed over immobilized P3375R, response against the clusterin concentration [right panel]. On the procedure: as §1
The sequence dependence of the clusterin-peptide interactions was investigated using SPR biosensor analysis and peptides with scrambled sequences. Immobilization of the peptides on the sensor chips and the SPR experiments were conducted as described in Example 4.

T1 sequence (P10909 23-449 limits assumed): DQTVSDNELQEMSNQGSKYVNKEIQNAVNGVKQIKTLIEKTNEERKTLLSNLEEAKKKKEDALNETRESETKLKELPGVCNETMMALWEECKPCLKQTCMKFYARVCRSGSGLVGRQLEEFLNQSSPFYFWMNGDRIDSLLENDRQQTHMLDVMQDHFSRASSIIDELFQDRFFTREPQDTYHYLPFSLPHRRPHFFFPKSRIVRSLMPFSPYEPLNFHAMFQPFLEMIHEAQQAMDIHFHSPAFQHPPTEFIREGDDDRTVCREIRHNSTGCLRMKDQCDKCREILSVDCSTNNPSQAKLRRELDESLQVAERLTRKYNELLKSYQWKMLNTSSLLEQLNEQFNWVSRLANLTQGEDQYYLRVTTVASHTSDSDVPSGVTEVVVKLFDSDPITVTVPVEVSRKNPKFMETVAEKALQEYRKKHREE

B1: P3376 synthetic peptide (SHALPLTWSTAA with C-terminal SGSGC extension) (peptide)
peptide: SHALPLTWSTAASGSGC
notes: In SPR it was immobilised through the C-terminal Cys (thioether); In STD-NMR it was free in solution
Take B1: the Kd (commonly the constant that tells how readily two partners part at equilibrium) amounted to 340 nM in experiment [1] and 342 nM in experiment [2].

B2: P3375 synthetic peptide (NTYWSQLLHFQT with C-terminal SGSGC extension) (peptide)
peptide: NTYWSQLLHFQTSGSGC
notes: as for B1
For B2, the Kd in experiment [3] was determined as 540 nM. Besides, the koff (commonly the rate constant with which the complex falls apart) in [4] was determined as 0.00603 s⁻¹. Further, in experiment [5], the koff amounted to 0.006 s⁻¹ and the kon (in general, the second-order rate constant of association) amounted to 11200 M⁻¹ s⁻¹.

B3: P3378 synthetic peptide (HPLSKHPYWSQP with C-terminal SGSGC extension) (peptide)
peptide: HPLSKHPYWSQPSGSGC
notes: Synthesised by Fmoc chemistry; In SPR it was immobilised on a CM5 chip by a thioether bond from the C-terminal Cys to maleimide; In STD-NMR it was free in solution
Turning to B3, the equilibrium dissociation constant (Kd) in experiment [6] turned out to be 520 nM; in experiment [7], 1100 nM; in [9], 514 nM; in experiment [10], 300 nM. In addition, the koff in experiment [8] was 0.0052 s⁻¹. The kon in experiment [8] was 17200 M⁻¹ s⁻¹.

B4: P3378R, randomized-sequence control peptide of P3378 (PYLHQSPHWKPSSGSGC) (peptide)
peptide: PYLHQSPHWKPSSGSGC
notes: Immobilised on the SPR chip; also called scrambled control peptide
In the case of B4, in experiment [11], the binding result is reported as “no binding”.

In the case of LSLYHTNTQFWQSGSGC (Immobilised on the SPR chip) [P3375R, randomized version of P3375 (LSLYHTNTQFWQSGSGC)], the EC50 (read off the curve) (usually the midpoint of the concentration-response curve) in experiment [12] was about 200 nM.
